± gives the standard deviation of the averaged measurements.
Test: total protein half-life in vivo (active degradation + dilution); higher = more stable protein
[1] = E. coli NCM3722 delta-clpP delta-lon delta-hslV, growth: N-lim chemostat, doubling time 6 h
[2] = wild type E. coli NCM3722, growth: P-lim chemostat, doubling time 12 h
[3] = E. coli NCM3722 delta-smpB, growth: N-lim chemostat, doubling time 6 h
[4] = wild type E. coli NCM3722, growth: N-lim chemostat, doubling time 12 h
[5] = E. coli NCM3722 delta-clpP, growth: N-lim chemostat, doubling time 6 h
[6] = E. coli NCM3722 delta-hslV, growth: N-lim chemostat, doubling time 6 h
[7] = wild type E. coli NCM3722, growth: C-lim chemostat, doubling time 3 h
[8] = wild type E. coli NCM3722, growth: C-lim chemostat, doubling time 6 h
[9] = wild type E. coli NCM3722, growth: P-lim chemostat, doubling time 6 h
[10] = E. coli NCM3722 delta-lon, growth: N-lim chemostat, doubling time 6 h
[11] = wild type E. coli NCM3722, growth: N-lim chemostat, doubling time 6 h
[12] = wild type E. coli NCM3722, growth: C-lim chemostat, doubling time 12 h

Sequence	total protein half-life in vivo [1] [h]	total protein half-life in vivo [2] [h]	total protein half-life in vivo [3] [h]	total protein half-life in vivo [4] [h]	total protein half-life in vivo [5] [h]	total protein half-life in vivo [6] [h]	total protein half-life in vivo [7] [h]	total protein half-life in vivo [8] [h]	total protein half-life in vivo [9] [h]	total protein half-life in vivo [10] [h]	total protein half-life in vivo [11] [h]	total protein half-life in vivo [12] [h]
MIKIGVIADDFTGATDIASFLVENGLPTVQINGVPTGKMPEAIDALVISLKTRSCPVVEATQQSLAALSWLQQQGCKQIYFKYCSTFDSTAKGNIGPVTDALMDALDTPFTVFSPALPVNGRTVYQGYLFVMNQLLAESGMRHHPVNPMTDSYLPRLVEAQSTGRCGVVSAHVFEQGVDAVRQELARLQQEGYRYAVLDALTEHHLEIQGEALRDAPLVTGGSGLAIGLARQWAQENGNQARKAGRPLAGRGVVLSGSCSQMTNRQVAHYRQIAPAREVDVARCLSIETLAAYAHELAEWVLGQESVLAPLVFATASTDALAAIQQQYGAQKASQAVETLFSQLAARLAAEGVTRFIVAGGETSGVVTQSLGIKGFHIGPTISPACRG	5.65 ± 0.84	11.4										
MIKKTTEIDAILLNLNKAIDAHYQWLVSMFHSVVARDASKPEITDNHSYGLCQFGRWIDHLGPLDNDELPYVRLMDSAHQHMHNCGRELMLAIVENHWQDAHFDAFQEGLLSFTAALTDYKIYLLTIRSNMDVLTGLPGRRVLDESFDHQLRNAEPLNLYLMLLDIDRFKLVNDTYGHLIGDVVLRTLATYLASWTRDYETVYRYGGEEFIIIVKAANDEEACRAGVRICQLVDNHAITHSEGHINITVTAGVSRAFPEEPLDVVIGRADRAMYEGKQTGRNRCMFIDEQNVINRV			1.44	3.5								
MIKLSEKGVFLASNNEIIAEEHFTGEIKKEEAKKGTIAWSILSSHNTSGNMDKLKIKFDSLASHDITFVGIVQTAKASGMERFPLPYVLTNCHNSLCAVGGTINGDDHVFGLSAAQRYGGIFVPPHIAVIHQYMREMMAGGGKMILGSDSHTRYGALGTMAVGEGGGELVKQLLNDTWDIDYPGVVAVHLTGKPAPYVGPQDVALAIIGAVFKNGYVKNKVMEFVGPGVSALSTDFRNSVDVMTTETTCLSSVWQTDEEVHNWLALHGRGQDYCQLNPQPMAYYDGCISVDLSAIKPMIALPFHPSNVYEIDTLNQNLTDILREIEIESERVAHGKAKLSLLDKVENGRLKVQQGIIAGCSGGNYENVIAAANALRGQSCGNDTFSLAVYPSSQPVFMDLAKKGVVADLIGAGAIIRTAFCGPCFGAGDTPINNGLSIRHTTRNFPNREGSKPANGQMSAVALMDARSIAATAANGGYLTSASELDCWDNVPEYAFDVTPYKNRVYQGFVKGATQQPLIYGPNIKDWPELGALTDNIVLKVCSKILDEVTTTDELIPSGETSSYRSNPIGLAEFTLSRRDPGYVSRSKATAELENQRLAGNVSELTEVFARIKQIAGQEHIDPLQTEIGSMVYAVKPGDGSAREQAASCQRVIGGLANIAEEYATKRYRSNVINWGMLPLQMAEVPTFEVGDYIYIPGIKAALDNPGTTFKGYVIHEDAPVTEITLYMESLTAEEREIIKAGSLINFNKNRQM		1.31 ± 0.42			5.63	6.45	1.12	1.87 ± 0.76	2.37			
MIKNLPQIVLLNIVGLALFLSWYIPVNHGFWLPIDADIFYFFNQKLVESKAFLWLVALTNNRAFDGCSLLAMGMLMLSFWLKENAPGRRRIVIIGLVMLLTAVVLNQLGQALIPVKRASPTLTFTDINRVSELLSVPTKDASRDSFPGDHGMMLLIFSAFMWRYFGKVAGLIALIIFVVFAFPRVMIGAHWFTDIIVGSMTVILIGLPWVLLTPLSDRLITFFDKSLPGKNKHFQNK	6.44 ± 0.069	14.4	4.98 ± 0.75	9.71		5.96	> 4	5.87 ± 0.17	5.76 ± 0.068	5.5 ± 0.33	5.91	
MIKQTIVALLLSVGASSVFAAGTVKVFSNGSSEAKTLTGAEHLIDLVGQPRLANSWWPGAVISEELATAAALRQQQALLTRLAEQGADSSADDAAAINALRQQIQALKVTGRQKINLDPDIVRVAERGNPPLQGNYTLWVGPPPSTVTLFGLISRPGKQPFTPGRDVASYLSDQSLLSGADRSYAWVVYPDGRTQKAPVAYWNKRHVEPMPGSIIYVGLADSVWSETPDALNADILQTLTQRIPQ	7.07		5.1 ± 0.077		6.22					7.193 ± 0.064		
MIKTTPHKIVILMGILLSPSVFATDINVEFTATVKATTCNITLTGNNVTNDGNNNYTLRIPKMGLDKIANKTTESQADFKLVASGCSSGISWIDTTLTGNASSSSPKLIIPQSGDSSSTTSNIGMGFKKRTTDDATFLKPNSAEKIRWSTDEMQPDKGLEMTVALRETDAGQGVPGNFRALATFNFIYQ												10.5
MIKVLFFAQVRELVGTDATEVAADFPTVEALRQHMAAQSDRWALALEDGKLLAAVNQTLVSFDHPLTDGDEVAFFPPVTGG		11.7 ± 0.55	4.6 ± 0.21	7.72 ± 0.16	4.52 ± 0.36	4.61 ± 0.15	2.96 ± 0.2	4.76 ± 0.41	5.12 ± 0.3	5.83 ± 0.47	4.25 ± 0.17	9.64 ± 0.42
MIKVYGVPGWGSTISELMLTLADIPYQFVDVSGFDHEGASRELLKTLNPLCQVPTLALENDEIMTETAAIALMVLDRRPDLAPPVGRAERQLFQRLLVWLVANVYPTFTFADYPERWAPDAPEQLKKNVIEYRKSLYIWLNSQLTAEPYAFGEQLTLVDCYLCTMRTWGPGHEWFQDNATNISAIADAVCQLPKLQEVLKRNEII	5.47 ± 0.78	12.2	4.48 ± 0.6		4.57 ± 0.21	4.93 ± 0.096		4.99	6.17	4.6	4.76	
MILLIDNYDSFTWNLYQYFCELGADVLVKRNDALTLADIDALKPQKIVISPGPCTPDEAGISLDVIRHYAGRLPILGVCLGHQAMAQAFGGKVVRAAKVMHGKTSPITHNGEGVFRGLANPLTVTRYHSLVVEPDSLPACFDVTAWSETREIMGIRHRQWDLEGVQFHPESILSEQGHQLLANFLHR	5.21 ± 0.68	12.9 ± 0.99	4.35 ± 0.22	8.41 ± 0.11	5.02	3.72 ± 1.2	3.31 ± 0.049	5.88 ± 0.4	6.18 ± 0.066	4.94 ± 0.68		10
MILSAFSLEGKVAVVTGCDTGLGQGMALGLAQAGCDIVGINIVEPTETIEQVTALGRRFLSLTADLRKIDGIPALLDRAVAEFGHIDILVNNAGLIRREDALEFSEKDWDDVMNLNIKSVFFMSQAAAKHFIAQGNGGKIINIASMLSFQGGIRVPSYTASKSGVMGVTRLMANEWAKHNINVNAIAPGYMATNNTQQLRADEQRSAEILDRIPAGRWGLPSDLMGPIVFLASSASDYVNGYTIAVDGGWLAR	3.57 ± 0.82	10.5 ± 0.36	2.31 ± 0.11	3.87 ± 0.81	2.06 ± 0.13	2.8 ± 0.69	2.75 ± 0.077	4.15 ± 0.16	5.03 ± 0.081	2.48 ± 0.36	2.385 ± 0.018	7.26 ± 0.34
MINSPRVCIQVQSVYIEAQSSPDNERYVFAYTVTIRNLGRAPVQLLGRYWLITNGNGRETEVQGEGVVGVQPLIAPGEEYQYTSGAIIETPLGTMQGHYEMIDENGVPFSIDIPVFRLAVPTLIH	6.35 ± 0.25	4.37 ± 0.13	1.24 ± 0.41	1.98	1.66 ± 0.39	0.615	1.4 ± 0.14	2.43	2.29 ± 0.19	1.4	1.65	3.11 ± 0.32
MINVLIIDDDAMVAELNRRYVAQIPGFQCCGTASTLEKAKEIIFNSDTPIDLILLDIYMQKENGLDLLPVLHNARCKSDVIVISSAADAATIKDSLHYGVVDYLIKPFQASRFEEALTGWRQKKMALEKHQYYDQAELDQLIHGSSSNEQDPRRLPKGLTPQTLRTLCQWIDAHQDYEFSTDELANEVNISRVSCRKYLIWLVNCHILFTSIHYGVTGRPVYRYRIQAEHYSLLKQYCQ [P0AD01]	5.41 ± 0.33	3.84 ± 0.61	3.1 ± 0.27	5.76 ± 0.53	2.86	4.1 ± 0.41	1.69 ± 0.17	3.27 ± 0.38	1.58	3.42 ± 0.16	3.51 ± 0.13	5.01 ± 0.094
MIQYLNVFFYDIYPYICATVFFLGSWLRYDYGQYTWRASSSQMLDKRGMVIWSNLFHIGILGIFFGHLFGMLTPHWMYAWFLPVAAKQLMAMVLGGICGVLTLIGGAGLLWRRLTNQRVRATSTTPDIIIMSILLIQCLLGLSTIPFSAQYPDGSEMMKLVGWAQSIVTFRGGSSEMLNGVAFVFRLHLVLGMTIFLLFPFTRLVHVWSAPFEYFTRRYQIVRSRR [P0AF32]	6.36 ± 0.3	11.3 ± 1.8		10.7 ± 1.9		7.27 ± 0.96		6.54		5.71 ± 0.33		11
MIRFAVIGTNWITRQFVEAAHESGKYKLTAVYSRSLEQAQHFANDFSVEHLFTSLEAMAESDAIDAVYIASPNSLHFSQTQLFLSHKINVICEKPLASNLAEVDAAIACARENQVVLFEAFKTACLPNFHLLRQALPKVGKLRKVFFNYCQYSSRYQRYLDGENPNTFNPAFSNGSIMDIGFYCLASAVALFGEPKSVQATASLLASGVDAQGVVVMDYGDFSVTLQHSKVSDSVLASEIQGEAGSLVIEKLSECQKVCFVPRGSQMQDLTQPQHINTMLYEAELFATLVDEHLVDHPGLAVSRITAKLLTEIRRQTGVIFPADSVKL	4.844 ± 0.015	10.8 ± 0.27	4.18 ± 0.54	6.53 ± 1.1	4.33 ± 0.36	4.29 ± 0.31	2.56 ± 0.41	5.28 ± 0.46	6.55 ± 1	4.616 ± 0.03	4.08 ± 0.11	9.44 ± 1.5
MIRISDAAQAHFAKLLANQEEGTQIRVFVINPGTPNAECGVSYCPPDAVEATDTALKFDLLTAYVDELSAPYLEDAEIDFVTDQLGSQLTLKAPNAKMRKVADDAPLMERVEYMLQSQINPQLAGHGGRVSLMEITEDGYAILQFGGGCNGCSMVDVTLKEGIEKQLLNEFPELKGVRDLTEHQRGEHSYY	4.529 ± 0.0069	6.09 ± 0.23	2.54 ± 0.25	3.63 ± 0.19	3.82 ± 0.32	2.533 ± 0.019	2.32 ± 0.16	3.4 ± 0.13	3.01 ± 0.56	2.97 ± 0.2	2.55 ± 0.36	5.07 ± 0.12
MIRQVIQRISNPEASIESLQERRFWLQCERAYTWQPIYQTCGRLMAVELLTVVTHPLNPSQRLPPDRYFTEITVSHRMEVVKEQIDLLAQKADFFIEHGLLASVNIDGPTLIALRQQPKILRQIERLPWLRFELVEHIRLPKDSTFASMCEFGPLWLDDFGTGMANFSALSEVRYDYIKIARELFVMLRQSPEGRTLFSQLLHLMNRYCRGVIVEGVETPEEWRDVQNSPAFAAQGWFLSRPAPIETLNTAVLAL							0.512 ± 0.23					
MIRTMLQGKLHRVKVTHADLHYEGSCAIDQDFLDAAGILENEAIDIWNVTNGKRFSTYAIAAERGSRIISVNGAAAHCASVGDIVIIASFVTMPDEEARTWRPNVAYFEGDNEMKRTAKAIPVQVA [P0A790]	4.79	4.54 ± 0.65	1.43	2.2		1.54 ± 0.23	1.68 ± 0.15	3.1	2.12	6.3	2.24	
MIRVACVGITVMDRIYYVEGLPTESGKYVARNYTEVGGGPAATAAVAAARLGAQVDFIGRVGDDDTGNSLLAELESWGVNTRYTKRYNQAKSSQSAIMVDTKGERIIINYPSPDLLPDAEWLEEIDFSQWDVVLADVRWHDGAKKAFTLARQAGVMTVLDGDITPQDISELVALSDHAAFSEPGLARLTGVKEMASALKQAQTLTNGHVYVTQGSAGCDWLENGGRQHQPAFKVDVVDTTGAGDVFHGALAVALATSGDLAESVRFASGVAALKCTRPGGRAGIPDCDQTRSFLSLFV	6.62 ± 1.4						2.49 ± 0.19	5.95 ± 1.4				7.92 ± 0.52

— the supplement of paper PMC11246515
